Data from paper PMC12809806, “Structural Analysis of Tilvestamab in Complex with AXL” (ACS Omega, 2025).

Key:
[1] = target: T1, Human AXL-Fc containing the entire extracellular domain of human AXL (Homo sapiens, UniProt P30530); assay: SEC-SAXS; SWING beamline (SOLEIL), HPLC mode; BioSEC-3 300 or BioSEC-5 1000 column in PBS or 10 mM histidine, 150 mM NaCl, pH 6; proteins alone and mixed, in solution; conditions: both partners purified
T1 construct: AXL receptor tyrosine kinase, human, entire extracellular domain (two Ig-like and two fibronectin type III domains); Dimer through the C-terminal Fc; also called dimeric AXL-Fc; source: bought: Evitria (Switzerland); not shown: Fc, C-terminal, kept
T1 sequence (P30530 26-451): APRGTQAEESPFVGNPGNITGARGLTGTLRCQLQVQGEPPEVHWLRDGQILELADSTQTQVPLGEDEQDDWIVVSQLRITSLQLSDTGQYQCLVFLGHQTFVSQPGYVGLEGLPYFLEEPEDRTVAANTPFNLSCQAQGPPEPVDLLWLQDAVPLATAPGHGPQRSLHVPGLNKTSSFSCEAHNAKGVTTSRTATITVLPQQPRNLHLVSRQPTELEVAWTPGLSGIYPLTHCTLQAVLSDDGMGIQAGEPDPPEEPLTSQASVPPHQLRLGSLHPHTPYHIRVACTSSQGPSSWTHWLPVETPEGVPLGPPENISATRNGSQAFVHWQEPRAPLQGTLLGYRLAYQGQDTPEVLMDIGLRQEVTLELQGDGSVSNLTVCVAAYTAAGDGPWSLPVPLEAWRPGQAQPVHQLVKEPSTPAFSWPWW

[2] = target: T2, Monomeric sAXL, the soluble extracellular domain of AXL (human, UniProt P30530); assay: as above; conditions: both partners purified
T2 construct: AXL receptor tyrosine kinase, human, soluble extracellular domain released from AXL-Fc by papain; also called monomeric AXL extracellular domain; source: papain digestion of AXL-Fc (Evitria), followed by protein A purification; not shown: Fc, C-terminal, cleaved
T2 sequence (P30530 26-451): as above

stoichiometry N [1]: 1 Fab per AXL-Fc chain (2:2)
stoichiometry N [2]: 1 Fab per sAXL (1:1)
B1: Fab fragment of tilvestamab (Fab, V domains shown)
VH: EVQLVESGGGLVQPGGSLRLSCAASGYSFTDFYINWVRQAPGKGLEWVARIFPGGDNTYYNEKFKGRFTLSADTSKSTAYLQMNSLRAEDTAVYYCARRGLYYAMDYWGQGTLVTVSS
VL: DIQMTQSPSSLSASVGDRVTITCRSSQSLVHSNGIPYLHWYQQKPGKAPKLLIYRVSNRFSGVPSRFSGSGSGTDFTLTISSLQPEDFATYYCSQGTHVPPTFGQGTKVEIK
notes: heavy chain (HC) of the Fab; light chain (LC) of the Fab; also called tilvestamab Fab; source: papain proteolysis of tilvestamab (immobilized papain), MabSelect SuRe column
